Two proteins from paper PMC7612262 (Structure (London, England : 1993), 2006) can be followed below.

Positions count from the first letter of the chain named.

This data set concerns the molecule itself. Description: crystal structure.

B1: MS2 coat protein Asn87Ser mutant (natural protein, bacteriophage MS2)
chain: ASNFTQFVLVDNGGTGDVTVAPSNFANGVAEWISSNSRSQAYKVTCSVRQSSAQNRKYTIKVEVPKVATQTVGGVELPVAAWRSYLSMELTIPIFATNSDCELIVKAMQGLLKDGNPIPSAIAANSGIY
On to B1, for which the binding result was “binds”.

B2: MS2 coat protein Asn87Ser, Glu89Lys double mutant (natural protein, bacteriophage MS2)
chain: B1 chain with E89K
Turning to B2, the binding result is “binds”.
